# Data: the DeepSol protein solubility set
# Assay: soluble on expression in E. coli; label from the status in PepcDB or PDB records
row,Sequence,soluble on expression in E. coli
1,MAEKTYSGFVAIVGKPNVGKSTLLNNLLGVKVAPISPRPQTTRKRLRGILTEGRRQIVFVDTPGLHKPMDALGEFMDQEVYEALADVNAVVWVVDLRHPPTPEDELVARALKPLVGKVPILLVGNKLDAAKYPEEAMKAYHELLPEAEPRMLSALDERQVAELKADLLALMPEGPFFYPEDYAKSDQTFGEWVAEILREEAMKRLWHEVPYAVATKVEEVAERENGVLYIKAILYVERPSQKAIVIGEGGRKIKEIGQATRKQLEALLGKKVYLDLEVKVYPDWRKDPEALRELGYRSSVG,soluble
2,MPPRRYNPDTRRDELLERINLDIPGAVAQALREDLGGTVDANNDITAKLLPENSRSHATVITRENGVFCGKRWVEEVFIQLAGDDVTIIWHVDDGDVINANQSLFELEGPSRVLLTGERTALNFVQTLSGVASKVRHYVELLEGTNTQLLDTRKTLPGLRSALKYAVLCGGGANHRLGLSDAFLIKENHIIASGSVRQAVEKASWLHPDAPVEVEVENLEELDEALKAGADIIMLDNFETEQMREAVKRTNGKALLEVSGNVTDKTLREFAETGVDFISVGALTKHVQALDLSMRFR,soluble
3,SGANISGGSPEFDRNDDVYSRKLRLVDLPENCVALIMTRLDPPEICRLARLNRMSRRASSADFIWESKLPANYRVIAHKVFDEITLTKLIKKDLYAKLSQPNLFDDGTKELWIDKNTGRLCLSISSKALRITGIDDRRYWSHIPTDESRFQSAAYVQQIWWFEVGGEFEIQFPSGTYSLFFRIQLGKTSKRLGRRICNSEHIHGWDIKPVRFQLATSDNQQAVSLCYLNNNPGSWSHYHVGDFKVTNPDVSTGIKFSMTQIDCTHTKGGLCIDSVLILPKECAKEVIGSQ,soluble
4,MDEVANALAVSQTMMEKMQKLEISKNYDVEKFETLLRLPARDVNTFMEKEAKKTDDEKMTDMDRRIKRIREDKTDRAARTLQKYFRKIRVKGEQNHINKRISKIPAKRRVVLLEQIRQKMGEQQPIRRFGGYQVIRAVELHKGKQKLQKDWLAKLSIDVNFHDKNLSRPNSPTHFIANSIPTLIRKKAEMKHAEKMQEIDSSIMDIYCGFQKDNLH,not soluble
5,MANVSLNKVDKQALVHQPNLLRECFALLVNAHYQTSPNDLLHLLRDDNSSVYLAMDKQNIIGVILTVEEGGLDDELIEAIQLGQRRPKGHLTPITIINQLGLVKVGKLITSRVMRIAVHPDLQGSGIGKRMLTLLEESVGAHVDYLSTSFGATDELIQFWQQAGYQSIRLGTMRDAASGCYSLLMVRQLANKSQ,not soluble
6,MGSDKIHHHHHHMKKRLGSQTARIDSKPRIVSAVSMVGPKEGRGPLKDYFDIILSDDMNGEESFEKAESNMLYTVITEVIKKSNLTENDIDYLFAGDLLNQITSSSFAARDAKIPFYGLYGACSTMTESLSIAAMIMDGGFADYTIAATSSHFSAAERQFRYPLEYGSQRKPDAQWTVTGAGAMLLARQGDFPYITFVTAGKVKDYGITSPDSMGEAMAPAAVDTIKQHFKDTGRTPQDYDVIATGDLGRVGKKITEDLLKKEYGYDMSNIYMDCGEKIFNCDEQDTNSGGSGCGCSAVVDCGYIYKNMLSGKIKKALLISTGALMSTTSNLQGESIPGIAHAVSIEFGGMKNE,not soluble
7,MPIPAPSPDARAVVTGASQNIGAALATELAARGHHLIVTARREDVLTELAARLADKYRVTVDVRPADLADPQERSKLADELAARPISILCANAGTATFGPIASLDLAGEKTQVQLNAVAVHDLTLAVLPGMIERKAGGILISGSAAGNSPIPYNATYAATKAFVNTFSESLRGELRGSGVHVTVLAPGPVRTELPDASEASLVEKLVPDFLWISTEHTARVSLNALERNKMRVVPGLTSKAMSVASQYAPRAIVAPIVGAFYKRLGGS,not soluble
8,MKLERVLPFARSLLQTAVKEGDYAVDATLGNGHDTCFLAEIVGDNGKVFGFDIQKEAIESSTTRLKEKELFERTVLVHDSHDTLLSILPEDAKGKVTGAIFNLGYLPGGDKHIVTKPNSTISAIEQLLEVMAPEGIIVLVIYHGHPEGQVERDAVLKFAEELDQKQAHVLRYGFINQQNNPPFIVAIEKR,not soluble
9,MAGDPMKSPCILLIIVCTLSLTGCASTKQADSDSSLGKAQQTLDSLYQHYSAKDSYLLRENYPFNEQYKVTYLASENQTNMPNQFSYLWPYSGTFSAVNSLLEATHDKKYQQLLEKQVLPGLEEYFDTERTPIAYSSYIRTAPTSDRFYDDNIWVGIDFIDIYQITKEKKYLDKAQLIWNFIESGTDSLLGDGIYWCEQKKESKNTCSNAPGSVFALKLFKATNDSLYFKRGKELYKWTQKNLQDSTDYLYFDNIRLDGKIGKAKFAYNSGQMMQSAALLYQLTKNPDYLKDAQSIAKECYNYFFTDFTTDTGESLKMLKQGNIWFTAVMLRGFIELYQLDQNKTFIDAFNQCLSYAWDNARDENGLFSTDLTGNNNNEKKWLLTQAAMVEMYSRLATIQLEHHHHHH,soluble
10,MGSDKIHHHHHHMSDPGQPTLDQLRVFIAVVETGSFAAAARKLNRATSVISYTIANLEAQLGVTLFDRLSTKKPQLTLEGRTVLAEARSVSNGIDNLRAKVKSMLRGIEPEVHLALDVMLPASRVMDALKAFRKEFPSVSLRLYVEALGAVTQIVLNRTATVGISGPLDVDVLGLERIGVGFVQLVPVAAPDHPLAGGSHAPGAARSHIQLVLTDRSPLTQGHEFAVVGTHTWRLADLGAKHMLLKEGIGWGNMPEPMVRDDLADGRLVQLDLPDCKGGPYRLQAIYRTDTPPGPAGRFLIEHFQAQDAKTPTTAW,not soluble
11,MSLKYKNLFFDLDDTIWAFSRNARDTFEEVYQKYSFDRYFDSFDHYYTLYQRRNTELWLEYGEGKVTKEELNRQRFFYPLQAVGVEDEALAERFSEDFFAIIPTKSGLMPHAKEVLEYLAPQYNLYILSNGFRELQSRKMRSAGVDRYFKKIILSEDLGVLKPRPEIFHFALSATQSELRESLMIGDSWEADITGAHGVGMHQAFYNVTERTVFPFQPTYHIHSLKELMNLLEGHHHHPPLIRIRAPSTSLRPHSSTTTTTTEIRLLTKPERKLSWLLPPLSNN,soluble
12,MKLVLFDCDGTLVDSAGLIHAVMSETFADFGKPRPDISETKAIIGLTLDIAIARMLGRAHVDDEAAAMALRYKENYHPLRERFENATPLFDGIASLIDMLSKRDDVLIGAVTGKGRRGLTQILETHGFADHFIVSRTADDCPSKPHPAMVMECCHETGMVPADTIVIGDAIYDMQMAKAAGAKAIGVAWGYASVEDLWKAGADAVVNHPNDIPAYVPADITE,not soluble
13,MASTAAETEKPEDHNDLVQLCNPHIAAMKEDILYHFSLSTSTHDFPAMFGDVKFVCVGGSPSRMKAFIKYVAMELGFAHPGADYPNICEGTDRYAMFKVGPVLSVSHGMGVPSIAIMLHELIKLLYHAHCSGVTLIRIGTSGGIGLEPGSVVITRQAVDPCFKPEFEQIVLGKREVRNTDLDEQLVQELARCSAELGEFPTVVGNTMCTLDFYEGQGRLDGALCSYTEKDKQDYLRAAYAAGIRNIEMEASVFAAMCNACGLRAAVVCVTLLNRLEGDQISSPHDVLAEYQQRPQRLVGQFIKKRLMQA,soluble
14,HMDIRPRLRIGQINLGGAEDATRELPSIARDLGLDIVLVQEQYSMVGFLAQCGAHPKAGVYIRNRVLPCAVLHHLSSTHITVVHIGGWDLYMVSAYFQYSDPIDPYLHRLGNILDRLRGARVVICADTNAHSPLWHSLPRHYVGRGQEVADRRAKMEDFIGARRLVVHNADGHLPTFSTANGESYVDVTLSTRGVRVSEWRVTNESSSDHRLIVFGVGGGTTGERDEDEEARSDLRPGEP,soluble
15,MGSDKIHHHHHHMTATVRQMWRHPIKGIGAEPLTEVRLETGGPMPLDRAWAVLTGTSEDTGAWQPCRNFARGCFGPELMAITAETQGNQITLRHPKQGEITLDPATDGARLLEWLLPLYPAERPQPHTLIKAPAGGMADADFSAVAILSLTSLKALGDALGQELDPRRFRGNLWIDGTAPFEEFDWVGRELKIGTARLEVVDRITRCRATETNPETGARDANTLKALREHWGHTDFGIRARVLSDGDIALSDSLEVL,not soluble
16,MNTGHDGALAYDEPIYLSDGNIINIGEFVDKFFKKYKNSIKKEDNGFGWIDIGNENIYIKSFNKLSLIIEDKRILRVWRKKYSGKLIKITTKNRREITLTHDHPVYISKTGEVLEINAEMVKVGDYIYIPKNNTINLDEVIKVETVDYNGHIYDLTVEDNHTYIAGKNEGFAVSASSGTLHHHHHH,soluble
